Results published in the supplement of paper PMC9170038.

tested on: K4 kissing-loop RNA reporter; experiment: apparent KD of K4 kissing-loop reporter; higher = weaker reporter binding; conditions: Eterna round: R107; input ligand: none
Description: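 RNA-MaP round R107: designed RNA switches with theophylline, tryptophan, arginine or FMN aptamers are transcribed on-chip within common flanks. They are titrated with a labelled K4 kissing-loop RNA reporter in RNA-MaP buffer (100 mM Tris pH 7.5, 80 mM KCl, 4 mM MgCl2), without ligand or with the indicated ligand. Median apparent KD per design.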
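Further: bound reporter read as fluorescence of individual clusters on recovered sequencing chips by microscopy, with normalized cluster intensities fitted with a binding model.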

Q: With “GGGAAGGGACACAAGGAGGAACGAAGGGAAGGAGCGCCGGAGGAGGCAGGUAGGUCGCCCAACCAGUGAUGUUGGAAUUUAAUCC [Default title]” as the sequence, how does the “apparent KD of K4 kissing-loop reporter” value read?
A: 287 nM

Q: “UCCCGAGUGAUGUUCGGCGCGGUCACCGAAGGAGCGGGCGAAAGCCCAGGUAGGUCGCGGUAGCGGAGUGAUUCUCCGCGACCGC [Same State Arginine A GF 24]” was tested. Which “apparent KD of K4 kissing-loop reporter” value did it give?
A: 286 nM

Q: Which “apparent KD of K4 kissing-loop reporter” value does the source give for “AAGUGUCAUUAGACACACUGAUGUAUAAACUAGGAUAUGCUGAUAAGCAGAAGGAGUGAUGUUCCUUUCAACAUCAGAAUUAAAU [KL-XFMN-A1]” here?
A: 155 nM

Q: Which “apparent KD of K4 kissing-loop reporter” value does the source give for “AAUAAAAUCACGGCCGCCACUGAUGUUAAUAUUAGCAGUGAUGUUGCUAUGUCGUUUUUCUUUAACAGGACCGGGUGAAUAUUUA [#22 K4 Tryptophan B Exclusion]” here?
A: 170 nM

Q: For “UUUAACGAGUGAUGUUCGAAGAGUAAUGGUGAGGAUAUCGAUUUUUCGAGAAGGCACCUCGAAGUGAUACGAAAGUAUCGCUUCG [FMN A 5]”, which “apparent KD of K4 kissing-loop reporter” value is on record?
A: 266 nM

Q: Which “apparent KD of K4 kissing-loop reporter” value does the source give for “CGCUUUGCGUCCGGUAGUGAUGUUACCAAGCGAGGACCGGUACGGCCGCCACUCGAGUGACAGACGUACUGGUAUCACCCGCUUU” here?
A: 248 nM

Q: With “AUUUGUUUAUGUGAUACCAGACUAAGCAGUGAUGUUGCUUUUAUUUUUGAAUUUUAAAUAGUCCCUUGGCAGCACUAUGUAUUUA [JR_SSTheophyB_Sub010]” as the sequence, how does the “apparent KD of K4 kissing-loop reporter” value read?
A: 70.2 nM

Q: For “ACGACGCAUAGUGAUACCAGCAUUAUAUGAGUGAUGUUCUACCUAAAAUGGUAAUAAUGAUGCCCUUGGCAGCACUAUGCGUCAG [KL-SSTheoB2]”, which “apparent KD of K4 kissing-loop reporter” value is on record?
A: 461 nM

Q: Which “apparent KD of K4 kissing-loop reporter” value does the source give for “AUGCGACGUGCGGCCGCCACUCGGAUGCGAGUGAUGUUCGCGGGCCGGCCGCAAGGCCGGCAUUCGAGGACCGGGCAUCGGUGUA [#2 Same State - Tryptophan B Attempt #1 (HarryS)]” here?
A: 546 nM

Q: With “UGACUGGACUGAAGGAGCGCGAAACUCCUAGUGAUGUUAGGAAUACGAGACAAAGUCUCGACGCAGGUAGGUCGCAGUCUAGUCU [ArgBS 16 #SwitchBubble #StaticStem]” as the sequence, how does the “apparent KD of K4 kissing-loop reporter” value read?
A: 113 nM

Q: With “GGAUAGGACAGAGGAUAUGGACAGUCUACAAAGUAGGCUGAAAAUCCUUGAAUGGAAGUGAUGUUUCUAGAAGGCUGUCCUAUCG [FmnBX 19 - #SwitchBubble #StaticStem #Palindromic]” as the sequence, how does the “apparent KD of K4 kissing-loop reporter” value read?
A: 190 nM

Q: With “AGUAAUGUCACGGCCGCCACUCUUUAUUGUUUUUAUAGUUAUAAAUCUUGCCAGUGAUGUUGGUAGAGGACCGGGUGACUUAAUA [#26 K4 Tryptophan B Same State]” as the sequence, how does the “apparent KD of K4 kissing-loop reporter” value read?
A: 245 nM

Q: With “AGUGAUGUUGUGUUAUGCUAGGGAAGUGAUCGAGGACCGGUACGGCCGCCACUCGAGUGAUGAGUGAGUGAUGUUUGUUUAGGGA [sdsmullin]” as the sequence, how does the “apparent KD of K4 kissing-loop reporter” value read?
A: 961 nM

Q: Which “apparent KD of K4 kissing-loop reporter” value does the source give for “GCAUCCUAGUCGGCCGCCACUAACAUGAGUGAUGUUCAUGUACGUCAGUGAUGUUGACGUAGUUAUAGGACCGGGACUAGGAUGC [KL-SSTryp-B7 Brourdwalk3]” here?
A: 137 nM

Q: For “AUUUUGUUGUCAGGAUAUUAGUAUGGUUUUGGUUUGUUAGUGAUGUUGAUGGUUUGUUUAUGUAUUUAAGAAGGGAUUUAGCGGU [swwsgumullin]”, which “apparent KD of K4 kissing-loop reporter” value is on record?
A: 534 nM

Q: Which “apparent KD of K4 kissing-loop reporter” value does the source give for “UUUAUAAUGUCGGCCGCCACUGGAUUAAUAUUUGUAUAAUCUAGUUCAAAGUGAUGUUUUGAGUCCAGGACCGGGACAUUUGUUA [JR_ExcTryptoB_Sub003]” here?
A: 582 nM

same assay, conditions: Eterna round: R107; input ligand: theophylline 20 uM

Q: How did the “apparent KD of K4 kissing-loop reporter” value turn out when “UUUUUUAAGAUAUUGACCAACCCGAAGCUACGAGGACCGGUACGGCCGCCACUCGCCAGUGAUGUUGGCGACUGGUGAAACCAUG [KL-XTryp-A24]” was run?
A: 105 nM

Q: With “GGAGGAGAAUAUGAUACCAGCAGAGAGAGAUACGAAGUAUAGUGAUGUUAUAUGAGAGAAUGCCCUUGGCAGCAUAAGACGCAGG [#08 K4 Theophylline B Same State]” as the sequence, how does the “apparent KD of K4 kissing-loop reporter” value read?
A: 95 nM

Q: How did the “apparent KD of K4 kissing-loop reporter” value turn out when “CUUGGAAGGACGGCCGCCACUCGACAGUGAUGUUGUCCGAGUUGGUAACGCAGUGAUGUUGUGUCGAGGACCGGGUCCUAGGAAU [Exclusion Tryptophan B GF 26]” was run?
A: 174 nM

Q: “UGAUUGGCAAAAGUAGUGAUGUUACGAAUAUAGGAUAUUAGAGGAAUAAGAAGGAUAAGGGAGAAAUAGGUAAAUUGUUGGUUGG [whbob_SS_FMNA__2th171]” was tested. Which “apparent KD of K4 kissing-loop reporter” value did it give?
A: 150 nM

Q: With “UAUAAUUCGGCGGCCGCCACUGACCAUAGCCUUCGAUGGCCAGUGAUGUUGGCCUCUGGCUCUAACAGGACCGGGCCGAAUUGUG [Reresoza]” as the sequence, how does the “apparent KD of K4 kissing-loop reporter” value read?
A: 138 nM

Q: How did the “apparent KD of K4 kissing-loop reporter” value turn out when “UGAUAGGACAGAAGGAGCGGAAUGCUAGUCAAAGACUAGCAACGUUAAACAGGAGUGAUGUUCCAGGUAGGUCGCUGUCCUAUCU [ArgBX 22 #SwitchBubble #StaticStem]” was run?
A: 140 nM

Q: How did the “apparent KD of K4 kissing-loop reporter” value turn out when “CAUUCGAAAUGCAGUGAUGUUGCAACUGAUACCAGUAUCGAAAGAUACCCUUGGCAGCGGAAAACCGCUACGUAUUUUUUGAAUG [Ex Theophylline A K4 25]” was run?
A: 356 nM

Q: “AGUGGUGUUGUGUUAUGUUUGGGAAGUGAUCGAGGACCGGUACGGCCGCCACUCGAGUGAUGAGUGAGUGAUGUUUGUUUAGGGA [whbob_SS_Tryp_A_m10]” was tested. Which “apparent KD of K4 kissing-loop reporter” value did it give?
A: 646 nM

Q: For “UGACUGGACUGAAGGAGCGUUGAAGGAGCGUAAGUAGUGAUGUUGCUUACAGGUAGGUCGCAGCAGGUAGGUCGCAGUCUAGUCU”, which “apparent KD of K4 kissing-loop reporter” value is on record?
A: 54.3 nM

Q: With “UGUACCGAGUCAGGAUAUGGCCGGAAACGGAAUAACCAGUGAUGUUGGAAUAAAUGGCGAAAGCCUCCAGAAGGGACUUGGUACU [FmnBS 18 #SwitchBubble #StaticStem #DoubleMagnetSystem]” as the sequence, how does the “apparent KD of K4 kissing-loop reporter” value read?
A: 212 nM

Q: How did the “apparent KD of K4 kissing-loop reporter” value turn out when “AGAACUGUCUGAGAUACCAGCUAAGGAGUGAUGUUCCUAGGUCCACGAAAGUGGACCCAUAGCCCUUGGCAGCUCAGACAGUUCA [#23 K4 Theophylline B Same State]” was run?
A: 674 nM

Q: For “CGGAUGUAGUGAUGUUAUAUUAGAUGUAGACGAGGACCGGUACGGCCGCCACUCGUGACGGCUGCUAGCGCGUUGCGAGGUGUGC [ExTryptoA.Cm]”, which “apparent KD of K4 kissing-loop reporter” value is on record?
A: 690 nM

Q: How did the “apparent KD of K4 kissing-loop reporter” value turn out when “UUAGUCAGAUUAUUAUUAGCCUGCGAGUCUAAGGAUAUCCGAAUUCGGAGAAGGUAGUGAUGUUACUUUGGCAGGCACUGACAUU [AK9 Exc FMN A]” was run?
A: 414 nM

Q: Which “apparent KD of K4 kissing-loop reporter” value does the source give for “GGAUAGGACAGAGGAUAUGGUAGUGAUGUUACCAAACUGGUUACUUUUGUCAGAAAACUGGCAUUUCCAGAAGGCUGUCCUAUCG [KL-XFMN-B12]” here?
A: 58 nM

Q: “AUUUAAUUAACUGAUACCAGACUUUUUGUUUUGAUAAUUACUAGUGAUGUUAGUGUUUCUGUCCCUUGGCAGCAGAAUCUACUUA [JR_ExcTheophyB_Sub018]” was tested. Which “apparent KD of K4 kissing-loop reporter” value did it give?
A: 347 nM

Q: How did the “apparent KD of K4 kissing-loop reporter” value turn out when “AUAGGAGUGAUGUUCCUUAGUCUCUCCGAUACCAGUAUGGAAACAUACCCUUGGCAGCGGGAGACCGCAGAUUAGGAAACUAGUC [Theophylline A K4 5]” was run?
A: 205 nM

Q: With “GGGAAGGGACACAAGGAGGAACGAAGGGAAGGAGCGCCGGAGGAGGCAGGUAGGUCGCCCAACCAGUGAUGUUGGAAUUUAAUCC [Default title]” as the sequence, how does the “apparent KD of K4 kissing-loop reporter” value read?
A: 114 nM

Q: For “UCCCGAGUGAUGUUCGGCGCGGUCACCGAAGGAGCGGGCGAAAGCCCAGGUAGGUCGCGGUAGCGGAGUGAUUCUCCGCGACCGC [Same State Arginine A GF 24]”, which “apparent KD of K4 kissing-loop reporter” value is on record?
A: 344 nM

Q: With “AAGUGUCAUUAGACACACUGAUGUAUAAACUAGGAUAUGCUGAUAAGCAGAAGGAGUGAUGUUCCUUUCAACAUCAGAAUUAAAU [KL-XFMN-A1]” as the sequence, how does the “apparent KD of K4 kissing-loop reporter” value read?
A: 153 nM

Q: Which “apparent KD of K4 kissing-loop reporter” value does the source give for “AAUAAAAUCACGGCCGCCACUGAUGUUAAUAUUAGCAGUGAUGUUGCUAUGUCGUUUUUCUUUAACAGGACCGGGUGAAUAUUUA [#22 K4 Tryptophan B Exclusion]” here?
A: 171 nM

Q: “UUUAACGAGUGAUGUUCGAAGAGUAAUGGUGAGGAUAUCGAUUUUUCGAGAAGGCACCUCGAAGUGAUACGAAAGUAUCGCUUCG [FMN A 5]” was tested. Which “apparent KD of K4 kissing-loop reporter” value did it give?
A: 269 nM

Q: For “CGCUUUGCGUCCGGUAGUGAUGUUACCAAGCGAGGACCGGUACGGCCGCCACUCGAGUGACAGACGUACUGGUAUCACCCGCUUU”, which “apparent KD of K4 kissing-loop reporter” value is on record?
A: 235 nM

Q: How did the “apparent KD of K4 kissing-loop reporter” value turn out when “AUUUGUUUAUGUGAUACCAGACUAAGCAGUGAUGUUGCUUUUAUUUUUGAAUUUUAAAUAGUCCCUUGGCAGCACUAUGUAUUUA [JR_SSTheophyB_Sub010]” was run?
A: 99.2 nM

Q: With “ACGACGCAUAGUGAUACCAGCAUUAUAUGAGUGAUGUUCUACCUAAAAUGGUAAUAAUGAUGCCCUUGGCAGCACUAUGCGUCAG [KL-SSTheoB2]” as the sequence, how does the “apparent KD of K4 kissing-loop reporter” value read?
A: 638 nM
